The test system of this data set is prothrombin.

For Factor Xa, the “sensitized acceptor emission of the thrombin beacon as a function of time” value is recorded as “This conversion resulted in a time-dependent increase of beacon signal”.
